{
  "source": "patent US20100311184A1",
  "about": "“AZO HETEROCYCLIC DYES AND THEIR BIOLOGICAL CONJUGATES” (AAT BIOQUEST, INC., priority 2009, published 2010)",
  "molecular_target": "HIV-1 protease (Human immunodeficiency virus type 1 group M subtype B, UniProt P04585)",
  "experiment": "Fluorogenic HIV protease assay with FRET peptides (FIG. 3)",
  "assay_type": "biochemical",
  "settings": "FRET peptide substrate, purified enzyme",
  "description": "Inhibition of HIV-1 protease represents an important avenue for AIDS therapy. Currently combination chemotherapy of reverse transcriptase inhibitors and protease inhibitors have shown to suppress the replication of HIV-1 and extend the life expectancy of HIV-1-infected individuals. The following FRET peptides of the instant disclosure are screened for developing a fluorogenic HIV protease assay. The enzyme assays are done with purified enzymes. Absorption spectra were taken with Hitachi U-3010. Endpoint fluorescence assays are run on either BMG NovoStar or Gemini SpectraMax (Molecular Devices). Enzyme kinetic assays are run on FlexStation (Molecular Devices). […] FRET Peptides #6 and #7 might be used for monitoring HIV protease activity in combination with a flow cytometer.\nAll the above FRET peptides are synthesized using the standard FMOC chemistry. Some of the TQ peptides were prepared using FMOC-Lys (Compound 12)-OH. For the post-labeling of the premade peptides, Dye NHS esters were used for labeling N-terminal amino or ε-amino group of lysine residue. Dye maleimides were used for labeling the SH group of cysteine residues.",
  "note": "Where no end group is shown, it is not given here. Compound 12 = dye made from 2-amino-6-nitrobenzothiazole and 3-(1'-oxo-3'-carboxypropylamino)-N,N-dimethylaniline",
  "data": [
    {"substance": "Arg-Glu(5-TAMRA)-Val-Ser-Phe-Asn-Phe-Pro-Gln-Ile-Thr-Lys(Compound 12)-Arg ({Arg-Glu(5-TAMRA)}-VSFNFPQITK(Compound 12)R) [FRET peptide #2]", "values": [
      {"measurement": "response to HIV-1 protease", "result": "excellent response"}
    ]}
  ]
}
